The source of these data is paper PMC3017672 (Journal of molecular biology, 2010).

This data set concerns the molecule itself. The data set can be described thus: cryo-EM structure.

B1: bacteriophage 80α capsid protein gp47 (natural protein, Staphylococcus aureus bacteriophage 80α, UniProt A4ZFB3 15-324, looked up)
chain: ASNNVKPQVFNPDNVMMHEKKDGTLMNEFTTPILQEVMENSKIMQLGKYEPMEGTEKKFTFWADKPGAYWVGEGQKIETSKATWVNATMRAFKLGVILPVTKEFLNYTYSQFFEEMKPMIAEAFYKKFDEAGILNQGNNPFGKSIAQSIEKTNKVIKGDFTQDNIIDLEALLEDDELEANAFISKTQNRSLLRKIVDPETKERIYDRNSDSLDGLPVVNLKSSNLKRGELITGDFDKLIYGIPQLIEYKIDETAQLSTVKNEDGTPVNLFEQDMVALRATMHVALHIADDKAFAKLVPADKRTDSVPGEV
In the case of B1, the “stoichiometry N” value was 420 copies.

What is called stoichiometry N is the number of molecules, sites or subunits per partner or assembly.
